Paper PMC2958806

Columns and labels:
[1] = molecular target: DENV2 E DI/II protein (E domains I and II, E residues 1-291) (dengue virus 2 (New Guinea C strain))
[2] = molecular target: DENV2 E DI/II H244A (dengue virus 2 (New Guinea C strain))

Substance | liposome co-floatation of DI/II at low pH in the presence of DIII (no co-floatation when BSA was substituted for DIII) [1] | liposome co-floatation of H244A DI/II at pH 5.75 with DIII, efficiency of floatation in the presence of pr (43% in the absence of pr) [2]
DENV2 NGC DIII (LDIIIH1CS, E residues 289-430) (domain or fragment) | 25% | 
DENV2 pr peptide (recombinant, prM residues 1-86 with tandem Strep tag) (domain or fragment) |  | 47%
